Sequences and labels used below:
B1: NEK8 (parent)
chain: VVGTPCYISPELCEGKPYNQKSDI
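Also: lentivirally expressed fusions sorted by FACS into six bins by GFP to DsRed ratio, PSI derived from sequencing read proportions per bin multiplied by bin number.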

In the series the parent is B1. Description: protein stability index of a GFP-peptide fusion (GPS, HEK-293T) (PSI 1-6); higher = more stable. As to conditions: c terminus: a fixed tail appended.
Take VVGTPCYISPELCQGKPYNQKSDI [E14Q]: the protein stability index stood at 2.37.
In the case of VVGTPCYISPELCWGKPYNQKSDI [E14W] it was 2.5; in that of VVGTPCYISPELCKGKPYNQKSDI [E14K], 2.6.
Under VVGTPCYISPELCDGKPYNQKSDI [E14D] stands 2.45.
In the case of VVGTPCYISPELCNGKPYNQKSDI [E14N] it was 2.52; in that of VVGTPCYISPELCHGKPYNQKSDI [E14H], 2.23; in that of VVGTPCYISPELCSGKPYNQKSDI [E14S], 2.38.
Consider VVGTPCYISPELCAGKPYNQKSDI [E14A], for which the protein stability index was found to be 2.49.
With VVGTPCYISPELCFGKPYNQKSDI [E14F], the protein stability index was found to be 1.82.
Under VVGTPCYISPELCGGKPYNQKSDI [E14G] stands 2.52; under VVGTPCYISPELCIGKPYNQKSDI [E14I], 2.2.
Under VVGTPCYISPELCRGKPYNQKSDI [E14R] stands 2.51; under VVGTPCYISPELCYGKPYNQKSDI [E14Y], 2.25.
Under VVGTPCYISPELCVGKPYNQKSDI [E14V] stands 2.23; under VVGTPCYISPELCMGKPYNQKSDI [E14M], 2.28; under VVGTPCYISPELCLGKPYNQKSDI [E14L], 2.67.
In the case of VVGTPCYISPELCPGKPYNQKSDI [E14P], the protein stability index came to 2.79.
As to VVGTPCYISPELCTGKPYNQKSDI [E14T], the protein stability index came to 2.73.
In the case of VVGTPCYISPELCCGKPYNQKSDI [E14C] it was 2.73; in that of VVGTPCYISPELCEGKSYNQKSDI [P17S], 3.02.
In the case of VVGTPCYISPELCEGKFYNQKSDI [P17F] it was 1.99.
Under VVGTPCYISPELCEGKNYNQKSDI [P17N] stands 3.12.
For the variant VVGTPCYISPELCEGKRYNQKSDI [P17R], the protein stability index was determined as 3.38.
For the variant VVGTPCYISPELCEGKIYNQKSDI [P17I], the protein stability index came to 2.39.
Under VVGTPCYISPELCEGKMYNQKSDI [P17M] stands 2.35; under VVGTPCYISPELCEGKKYNQKSDI [P17K], 2.99; under VVGTPCYISPELCEGKQYNQKSDI [P17Q], 2.77.
Consider VVGTPCYISPELCEGKTYNQKSDI [P17T], for which the protein stability index was found to be 3.
Regarding VVGTPCYISPELCEGKAYNQKSDI [P17A], the protein stability index was 2.91.
For the variant VVGTPCYISPELCEGKWYNQKSDI [P17W], the protein stability index stood at 1.65.
In the case of VVGTPCYISPELCEGKYYNQKSDI [P17Y] it was 2.27; in that of VVGTPCYISPELCEGKEYNQKSDI [P17E], 3.09.
On to VVGTPCYISPELCEGKGYNQKSDI [P17G], for which the protein stability index turned out to be 2.76.
In the case of VVGTPCYISPELCEGKVYNQKSDI [P17V] it was 2.55; in that of VVGTPCYISPELCEGKDYNQKSDI [P17D], 3.05; in that of VVGTPCYISPELCEGKCYNQKSDI [P17C], 2.22.
Under VVGTPCYISPELCEGKHYNQKSDI [P17H] stands 2.9; under VVGTPCYISPELCEGKLYNQKSDI [P17L], 2.23; under VVGTPCYISPELCEGKPHNQKSDI [Y18H], 2.7.
Under VVGTPCYISPELCEGKPENQKSDI [Y18E] stands 3.72.
For the variant VVGTPCYISPELCEGKPLNQKSDI [Y18L], the protein stability index is 2.8.
For the variant VVGTPCYISPELCEGKPMNQKSDI [Y18M], the protein stability index amounted to 3.15.
Under VVGTPCYISPELCEGKPFNQKSDI [Y18F] stands 2.67; under VVGTPCYISPELCEGKPVNQKSDI [Y18V], 3.67; under VVGTPCYISPELCEGKPGNQKSDI [Y18G], 3.45.
Take VVGTPCYISPELCEGKPCNQKSDI [Y18C]: the protein stability index stood at 3.05.
In the case of VVGTPCYISPELCEGKPRNQKSDI [Y18R] it was 3.58; in that of VVGTPCYISPELCEGKPQNQKSDI [Y18Q], 3.5.
In the case of VVGTPCYISPELCEGKPINQKSDI [Y18I] it was 2.79.
VVGTPCYISPELCEGKPWNQKSDI [Y18W]: the protein stability index amounted to 2.6.
For VVGTPCYISPELCEGKPDNQKSDI [Y18D], the protein stability index turned out to be 3.53.
On to VVGTPCYISPELCEGKPNNQKSDI [Y18N], for which the protein stability index amounted to 3.63.
Under VVGTPCYISPELCEGKPANQKSDI [Y18A] stands 3.6; under VVGTPCYISPELCEGKPSNQKSDI [Y18S], 3.86.
In the case of VVGTPCYISPELCEGKPTNQKSDI [Y18T] it was 3.68.
Under VVGTPCYISPELCEGKPPNQKSDI [Y18P] stands 3.4.
On to VVGTPCYISPELCEGKPKNQKSDI [Y18K], for which the protein stability index worked out at 3.67.
In the case of VVGTPCYISPELCEGKPYAQKSDI [N19A] it was 2.79; in that of VVGTPCYISPELCEGKPYHQKSDI [N19H], 2.48.
Consider VVGTPCYISPELCEGKPYSQKSDI [N19S], for which the protein stability index was 3.1.
Under VVGTPCYISPELCEGKPYIQKSDI [N19I] stands 2.38.
Under VVGTPCYISPELCEGKPYGQKSDI [N19G] stands 2.48; under VVGTPCYISPELCEGKPYCQKSDI [N19C], 2.46.
Turning to VVGTPCYISPELCEGKPYFQKSDI [N19F], the protein stability index worked out at 2.14.
In the case of VVGTPCYISPELCEGKPYQQKSDI [N19Q], the protein stability index came out at 3.19.
In the case of VVGTPCYISPELCEGKPYMQKSDI [N19M] it was 2.88; in that of VVGTPCYISPELCEGKPYTQKSDI [N19T], 2.98; in that of VVGTPCYISPELCEGKPYRQKSDI [N19R], 2.45.
Turning to VVGTPCYISPELCEGKPYKQKSDI [N19K], the protein stability index was 2.98.
In the case of VVGTPCYISPELCEGKPYLQKSDI [N19L] it was 2.21; in that of VVGTPCYISPELCEGKPYPQKSDI [N19P], 2.82.
Consider VVGTPCYISPELCEGKPYDQKSDI [N19D], for which the protein stability index worked out at 3.22.
Under VVGTPCYISPELCEGKPYEQKSDI [N19E] stands 2.94.
As to VVGTPCYISPELCEKKPYNQKSDI [G15K], the protein stability index is 3.45.
In the case of VVGTPCYISPELCEIKPYNQKSDI [G15I], the protein stability index is 2.41.
In the case of VVGTPCYISPELCEVKPYNQKSDI [G15V] it was 3.14; in that of VVGTPCYISPELCENKPYNQKSDI [G15N], 2.68.
In the case of VVGTPCYISPELCEDKPYNQKSDI [G15D] it was 2.93; in that of VVGTPCYISPELCEQKPYNQKSDI [G15Q], 2.97.
Turning to VVGTPCYISPELCELKPYNQKSDI [G15L], the protein stability index was determined as 2.19.
As for VVGTPCYISPELCEFKPYNQKSDI [G15F], the protein stability index was found to be 2.15.
Under VVGTPCYISPELCEMKPYNQKSDI [G15M] stands 2.39; under VVGTPCYISPELCESKPYNQKSDI [G15S], 2.37.
Take VVGTPCYISPELCETKPYNQKSDI [G15T]: the protein stability index came out at 2.87.
Consider VVGTPCYISPELCEPKPYNQKSDI [G15P], for which the protein stability index came out at 2.56.
Under VVGTPCYISPELCERKPYNQKSDI [G15R] stands 2.85; under VVGTPCYISPELCEAKPYNQKSDI [G15A], 2.85.
Under VVGTPCYISPELCEYKPYNQKSDI [G15Y] stands 2.34; under VVGTPCYISPELCEWKPYNQKSDI [G15W], 1.64.
As to VVGTPCYISPELCEHKPYNQKSDI [G15H], the protein stability index was 2.84.
With VVGTPCYISPELCEEKPYNQKSDI [G15E], the protein stability index was 2.8.
As for VVGTPCYISPELCECKPYNQKSDI [G15C], the protein stability index came out at 2.47.
For the variant VVGTPCYISPEDCEGKPYNQKSDI [L12D], the protein stability index is 3.4.
For the variant VVGTPCYISPEHCEGKPYNQKSDI [L12H], the protein stability index amounted to 3.59.

Values taken from the supplement of paper PMC10567573.
